Test: soluble on expression in E. coli; label from the status in PepcDB or PDB records

Soluble on expression in E. coli, soluble:
GPLGSMQLKPMEINPEMLNKVLSRLGVAGQWRFVDVLGLEEESLGSVPAPACALLLLFPLTAQHENFRKKQIEELKGQEVSPKVYFMKQTIGNSCGTMGLIHAVANNQDKLGFEDGSVLKQFLSETEKMSPEDRAKCFEKNEAIQAAHDAVAQEGQCRVDDKVNFHFILFNNVDGHLYELDGRMPFPVNHGASSEDTLLKDAAKVCREFTEREQGEVRFSAVALCKAA
GPLGSPEFPGMSKVFIATANAGKAHDADIFSVSACNSFTVSCSGDGYLKVWDNKLLDNENPKDKSYSHFVHKSGLHHVDVLQAIERDAFELCLVATTSFSGDLLFYRITREDETKKVIFEKLDLLDSDMKKHSFWALKWGASNDRLLSHRLVATDVKGTTYIWKFHPFADESNSLTLNWSPTLELQGTVESPMTPSQFATSVDISERGLIATGFNNGTVQISELSTLRPLYNFESQHSMINNSNSIRSVKFSPQGSLLAIAHDSNSFGCITLYETEFGERIGSLSVPTHSSQASLGEFAHSSWVMSLSFNDSGETLCSAGWDGKLRFWDVKTKERITTLNMHCDDIEIEEDILAVDEHGDSLAEPGVFDVKFLKKGWRSGMGADLNESLCCVCLDRSIRWFREAGGK
GPLGSPQMAQGTLIRVTPEQPTHAVCVLGTLTQLDICSSAPEDCTSFSINASPGVVVDIAHSPPAKKKSTGSSTWPLDPGVEVTLTMKAASGSTGDQKVQISYYGPKTPPVKALLYLTAVEISLCADITRTGKVKPTRAVKDQRTWTWGPCGQGAILLVNCDRDNLESSAMDCEDDEVLDSEDLQDMSLMTLSTKTPKDFFTNHTLVLHVARSEMDKVRVFQATRGKLSSKCSVVLGPKWPSHYLMVPGGKHNMDFYVEALAFPDTDFPGLITLTISLLDTSNLELPEAVVFQDSVVFRVAPWIMTPNTQPPQEVYACSIFENEDFLKSVTTLAMKAKCKLTICPEEENMDDQWMQDEMEIGYIQAPHKTLPVVFDSPRNRGLKEFPIKRVMGPDFGYVTRGPQTGGISGLDSFGNLEVSPPVTVRGKEYPLGRILFGDSCYPSNDSRQMHQALQDFLSAQQVQAPVKLYSDWLSVGHVDEFLSFVPAPDRKGFRLLLASPRSCYKLFQEQQNEGHGEALLFEGIKKKKQQKIKNILSNKTLREHNSFVERCIDWNRELLKRELGLAESDIIDIPQLFKLKEFSKAEAFFPNMVNMLVLGKHLGIPKPFGPVINGRCCLEEKVCSLLEPLGLQCTFINDFFTYHIRHGEVHAGTNVRRKPFSFKWWNMVP
GPLGSSYSMEQVEGITSEYIVKNADMFAVAVSLVSGKILYISNQVASIFHCKKDAFSDAKFVEFLAPHDVSVFHSYTTPYKLPPWSVCSGLDSFTQECMEEKSFFCRVSVGKHHENEIRYQPFRMTPYLVKVQEQQGAESQLCCLLLAERVHSGYEAPRIPPEKRIFTTTHTPNCLFQAVDERAVPLLGYLPQDLIETPVLVQLHPSDRPLMLAIHKKILQAGGQPFDYSPIRFRTRNGEYITLDTSWSSFINPWSRKISFIIGRHKVRVGPLNEDVFAAPPCPEEKTPHPSVQELTEQIHRLLMQPVP
GPMPQLTLDKTDIKILQVLQENGRLTNVELSERVALSPSPCLRRLKQLEDAGIVRQYAALLSPESVNLGLQAFIRVSIRKAKDAREDFAASVRKWPEVLSCFALTGETDYLLQAFFTDMNAFSHFVLDTLLSHHGVQDAQSSFVLKEIKHTTSLPLNHLLKE
GPNSGTLALLLDEGSKQLPQAIIIGVKKGGTRALLEFLRVHPDVRAVGAEPHFFDRSYDKGLAWYRDLMPRTLDGQITMEKTPSYFVTREAPARISAMSKDTKLIVVVRDPVTRAISDYTQTLSKRPDIPTFESLTFKNRTAGLIDTSWSAIQIGIYAKHLEHWLRHFPIRQMLFVSGERLISDPAGELGRVQDFLGLKRIITDKHFYFNKTKGFPCLKKAEGSSRPHCLGKTKGRTHPEIDREVVRRLREFYRPFNLKFYQMTGHDFGWDG
GPPQMSATNEDLKTNFHSLHNQMRQMPMSHFREALDAPDYSGMRQSGFFAMSQGFQLESHGGDVFMHAHRENPQCKGDFAGDKFHISVQREQVPQAFQALSGLLFSVDSPIDKWKVTDMERVDQQSRVAVGAQFTLYVKPDQENSQYSASSLHNTRQFIECLESRLSESGLMPGQYPESDVHPENWKYVSYRNELRSGRDGGEMQSQALREEPFYRLMAE

Reference: the DeepSol protein solubility set
